Assay results reported in patent US20250066499A1 (SUNSHINE GUOJIAN PHARMACEUTICAL SHANGHAI, published 2025).
Residue numbers refer to the chain shown, from its start.

Columns and labels:
CD73-CD-his = molecular target: T1, CD73-CD-his (human, UniProt P21589 337-549); experiment: ELISA as in Example 3, antigen CD73-CD-his, antibody titrated, absorbance 450 nm
T1 construct: it fits residue S549 of P21589 (27+522)
T1 sequence: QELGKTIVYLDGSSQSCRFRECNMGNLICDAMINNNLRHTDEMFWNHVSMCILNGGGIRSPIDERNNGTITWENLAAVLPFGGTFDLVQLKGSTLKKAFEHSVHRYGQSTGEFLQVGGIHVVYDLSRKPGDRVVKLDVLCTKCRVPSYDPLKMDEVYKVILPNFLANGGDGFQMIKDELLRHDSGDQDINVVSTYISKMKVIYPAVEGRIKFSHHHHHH

CD73-ND-K180A [1] = molecular target: T2, CD73-ND-K180A (human, UniProt P21589 27-317); experiment: ELISA; decline multiple of Top against CD73-ND
T2 construct: Alanine mutant of CD73-ND
T2 sequence: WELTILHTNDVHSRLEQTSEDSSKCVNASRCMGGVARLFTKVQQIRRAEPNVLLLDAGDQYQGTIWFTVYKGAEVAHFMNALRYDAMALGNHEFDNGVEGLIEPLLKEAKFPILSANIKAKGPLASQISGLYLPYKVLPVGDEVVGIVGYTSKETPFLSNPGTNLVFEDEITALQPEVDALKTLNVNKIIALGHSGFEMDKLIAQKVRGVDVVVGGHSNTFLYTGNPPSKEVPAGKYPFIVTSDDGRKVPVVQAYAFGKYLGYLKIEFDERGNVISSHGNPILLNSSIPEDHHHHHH
Description: (§1) The ELISA plates were coated with SA protein diluted to 1.5 μg/mL in coating buffer (50 mM carbonate coating buffer, pH 9.6) and incubated overnight at 4° C. The supernatant was discarded, and the plates were washed three times with PBST. Then, 5% skimmed milk powder prepared with PBS was added for blocking and the plates were incubated for 2 h at 37° C. After washing the plates once with PBST, CD73-biotin protein (prepared by biotinylating CD73-His protein according to the EZ-Link NHS-Biotin Reagent instructions) was diluted to 0.5 μg/mL and added at 100 μL/well for incubation at room temperature for 1 h. The plates were washed three times with PBST, and the prepared murine-derived monoclonal antibodies against human CD73 were serially diluted with 1% BSA buffer prepared with PBST and added to the ELISA plates at 100 μl/well. The plates were incubated at 37° C. for 1 h. After washing the plates three times with PBST, HRP-labeled goat anti-mouse IgG secondary antibody was added and the plates were incubated for 30 min at 37° C. After washing the plates three times with PBST, the residual droplets were patted dry on absorbent paper as much as possible. Then, 100 μl of TMB color developing solution was added to each well, and the plates were incubated in the dark at room temperature for 5 min for color development. Subsequently, 50 μl of 2M H₂SO₄ stop solution was added to each well to terminate the substrate reaction. The OD values were read at 450 nm using a multimode microplate reader to analyze the binding ability of the tested antibodies to the target antigen human CD73-His.
(§2) Referring to the experimental method in Example 3, the affinity of 48A11-HuV33 for various mutant proteins of CD73-ND was determined. The SA protein was diluted to 1 μg/mL for coating the ELISA plates, and the biotinylated CD73 protein (CD73-biotin) was used at a concentration of 0.1 μg/mL.

CD73-ND-V144A = molecular target: T3, CD73-ND-V144A (human, UniProt P21589 27-317); experiment: ELISA; decline multiple of Top against CD73-ND
T3 construct: Alanine mutant of CD73-ND
T3 sequence: T2 sequence with V144A, A180K
Description: as §1, §2

CD73-ND-N185A = molecular target: T4, CD73-ND-N185A (human, UniProt P21589 27-317); experiment: ELISA; decline multiple of Top against CD73-ND
T4 construct: Alanine mutant of CD73-ND
T4 sequence: T2 sequence with A180K, N185A
Description: as §1, §2

CD73-ND-T183A = molecular target: T5, CD73-ND-T183A (human, UniProt P21589 27-317); experiment: ELISA; decline multiple of Top against CD73-ND
T5 construct: Alanine mutant of CD73-ND
T5 sequence: T2 sequence with A180K, T183A
Description: as §1, §2

CD73-ND-his = molecular target: T6, CD73-ND-his (human, UniProt P21589 27-317); experiment: ELISA; decline multiple of Top against CD73-ND
T6 construct: Biotinylated and captured on streptavidin in the ELISA
T6 sequence: T2 sequence with A180K
Description: as §1, §2

CD73-ND-K180A [2] = molecular target: T2, CD73-ND-K180A; experiment: ELISA, biotinylated antigen on streptavidin plate
Description: as §1, §2

B1: 48A11-HuV33 (antibody, human IgG4, V domains shown)
VH: QVQLVQSGAEVKKPGASVKVSCKASGYTFTSYWMHWVRQAPGQGLEWIGEINPSIGRTNYNEKFKSRVTLTRDTSTSTAYMELSSLRSEDTAVYYCARRVYGTMDYWGQGTLVTVSS
VL: DIQMTQSPSSLSASVGDRVTITCKASQDINSYLSWFQQKPGKSPKLLIYRANIWVDGVPSRFSGSGSGQDYTFTISSLQPEDIATYYCLQYDELYTFGQGTKVEIK
notes: Humanized
In the case of B1, the binding result (CD73-CD-his) is reported as “no binding (tested: 10 nM)”, the “Ratio(Top)” value (CD73-ND-K180A [1]) is reported as 1.1 fold and the “Ratio(Top)” value (CD73-ND-V144A) is reported as 1.2 fold. The “Ratio(Top)” value (CD73-ND-N185A) was 1 fold, the “Ratio(Top)” value (CD73-ND-T183A) was 1 fold and the “Ratio(Top)” value (CD73-ND-his) was 1 fold. The EC50 (CD73-ND-K180A [2]) was 0.321 nM.
